Source: doi:10.1101/2022.08.07.503104, “A tripartite complex HIV-1 Tat-cyclophilin A-capsid protein enables Tat encapsidation that is required for HIV-1 infectivity” (bioRxiv, 2022)

Experiments:
[1] = biological target: T1, Recombinant human CypA (human, UniProt P62937 1-165, Monolith RED-NHS 2nd generation fluorescent label, in the MST experiments only); assay: MST; fluorescently labeled CypA at 50 nM, partner titrated; where indicated CypA first mixed with 20 µM CA or 1 µM Tat; 20°C, 150 mM NaCl, 50 mM citrate, pH 7.3, 0.05% Tween; conditions: both partners purified
T1 construct: extra N-terminal gly residue left after TEV cleavage; cyclophilin A (CypA), human; Unlabeled in SEC and SPR, labeled in MST; also called cyclophilin A; labeled CypA; source: E. coli BL21 λDE3, purified (Ni-NTA, TEV cleavage, second Ni-NTA); not shown: His6, N-terminal, cleaved
T1 sequence (P62937 other isoform, or with tags, fused parts or gaps): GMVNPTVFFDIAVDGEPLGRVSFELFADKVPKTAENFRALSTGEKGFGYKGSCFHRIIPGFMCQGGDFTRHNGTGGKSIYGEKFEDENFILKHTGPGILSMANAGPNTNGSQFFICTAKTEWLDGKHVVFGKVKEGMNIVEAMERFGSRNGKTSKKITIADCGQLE

[2] = biological target: T1, Recombinant human CypA; assay: SPR; Tat immobilised on a CM5S chip by amine coupling (~11000 RU); CypA or equimolecular CypA/CA mix at 370-6000 nM, one cycle kinetic titration, or CA at 2 µM; 25°C, 20 mM phosphate, 30 mM citrate, pH 7, 150 mM NaCl, 0.05% P20; two state fitting model; conditions: both partners purified

B1: Recombinant Tat (86 residues, BH10 isolate) (natural protein)
chain: MEPVDPRLEPWKHPGSQPKTACTNCYCKKCCFHCQVCFITKALGISYGRKKRRQRRRPPQGSQTHQVSLSKQPTSQSRGDPTGPKE
notes: HIV-1 Tat, BH10 isolate, 86 residues; source: E. coli, purified (as Vendeville et al., 2004); lyophilized
B1 gave a Kd [1] of 243 ± 23 nM and a Kd [2] of 255 ± 10 nM.
